In article PMC10540216, “Activity Guided Azide-methyllysine Photo-trapping for Substrate Profiling of Lysine Demethylases” (Journal of the American Chemical Society, 2023):

B1: SMC1A_HUMAN (protein, UniProt Q14683 1-1233, looked up)
Structural maintenance of …: MGFLKLIEIENFKSYKGRQIIGPFQRFTAIIGPNGSGKSNLMDAISFVLGEKTSNLRVKTLRDLIHGAPVGKPAANRAFVSMVYSEEGAEDRTFARVIVGGSSEYKINNKVVQLHEYSEELEKLGILIKARNFLVFQGAVESIAMKNPKERTALFEEISRSGELAQEYDKRKKEMVKAEEDTQFNYHRKKNIAAERKEAKQEKEEADRYQRLKDEVVRAQVQLQLFKLYHNEVEIEKLNKELASKNKEIEKDKKRMDKVEDELKEKKKELGKMMREQQQIEKEIKEKDSELNQKRPQYIKAKENTSHKIKKLEAAKKSLQNAQKHYKKRKGDMDELEKEMLSVEKARQEFEERMEEESQSQGRDLTLEENQVKKYHRLKEEASKRAATLAQELEKFNRDQKADQDRLDLEERKKVETEAKIKQKLREIEENQKRIEKLEEYITTSKQSLEEQKKLEGELTEEVEMAKRRIDEINKELNQVMEQLGDARIDRQESSRQQRKAEIMESIKRLYPGSVYGRLIDLCQPTQKKYQIAVTKVLGKNMDAIIVDSEKTGRDCIQYIKEQRGEPETFLPLDYLEVKPTDEKLRELKGAKLVIDVIRYEPPHIKKALQYACGNALVCDNVEDARRIAFGGHQRHKTVALDGTLFQKSGVISGGASDLKAKARRWDEKAVDKLKEKKERLTEELKEQMKAKRKEAELRQVQSQAHGLQMRLKYSQSDLEQTKTRHLALNLQEKSKLESELANFGPRINDIKRIIQSREREMKDLKEKMNQVEDEVFEEFCREIGVRNIREFEEEKVKRQNEIAKKRLEFENQKTRLGIQLDFEKNQLKEDQDKVHMWEQTVKKDENEIEKLKKEEQRHMKIIDETMAQLQDLKNQHLAKKSEVNDKNHEMEEIRKKLGGANKEMTHLQKEVTAIETKLEQKRSDRHNLLQACKMQDIKLPLSKGTMDDISQEEGSSQGEDSVSGSQRISSIYAREALIEIDYGDLCEDLKDAQAEEEIKQEMNTLQQKLNEQQSVLQRIAAPNMKAMEKLESVRDKFQETSDEFEAARKRAKKAKQAFEQIKKERFDRFNACFESVATNIDEIYKALSRNSSAQAFLGPENPEEPYLDGINYNCVAPGKRFRPMDNLSGGEKTVAALALLFAIHSYKPAPFFVLDEIDAALDNTNIGKVANYIKEQSTCNFQAIVISLKEEFYTKAESLIGVYPEQGDCVISKVLTFDLTKYPDANPNPNEQ
B2: AAAT_HUMAN (protein, UniProt Q15758 1-541, looked up)
Neutral amino acid …: MVADPPRDSKGLAAAEPTANGGLALASIEDQGAAAGGYCGSRDQVRRCLRANLLVLLTVVAVVAGVALGLGVSGAGGALALGPERLSAFVFPGELLLRLLRMIILPLVVCSLIGGAASLDPGALGRLGAWALLFFLVTTLLASALGVGLALALQPGAASAAINASVGAAGSAENAPSKEVLDSFLDLARNIFPSNLVSAAFRSYSTTYEERNITGTRVKVPVGQEVEGMNILGLVVFAIVFGVALRKLGPEGELLIRFFNSFNEATMVLVSWIMWYAPVGIMFLVAGKIVEMEDVGLLFARLGKYILCCLLGHAIHGLLVLPLIYFLFTRKNPYRFLWGIVTPLATAFGTSSSSATLPLMMKCVEENNGVAKHISRFILPIGATVNMDGAALFQCVAAVFIAQLSQQSLDFVKIITILVTATASSVGAAGIPAGGVLTLAIILEAVNLPVDHISLILAVDWLVDRSCTVLNVEGDALGAGLLQNYVDRTESRSTEPELIQVKSELPLDPLPVPTEEGNPLLKHYRGPAGDATVASEKESVM
B3: SYIM_HUMAN (protein, UniProt Q9NSE4 49-1012, looked up)
Isoleucine--tRNA ligase, …: SNHQPNSNSGRYRDTVLLPQTSFPMKLLGRQQPDTELEIQQKCGFSELYSWQRERKVKTEFCLHDGPPYANGDPHVGHALNKILKDIANRFHMMNGSKIHFVPGWDCHGLPIEIKVLSELGREAQNLSAMEIRKKARSFAKAAIEKQKSAFIRWGIMADWNNCYYTFDGKYEAKQLRTFYQMYDKGLVYRSYKPVFWSPSSRTALAEAELEYNPEHVSRSIYVKFPLLKPSPKLASLIDGSSPVSILVWTTQPWTIPANEAVCYMPESKYAVVKCSKSGDLYVLAADKVASVASTLETTFETISTLSGVDLENGTCSHPLIPDKASPLLPANHVTMAKGTGLVHTAPAHGMEDYGVASQHNLPMDCLVDEDGVFTDVAGPELQNKAVLEEGTDVVIKMLQTAKNLLKEEKLVHSYPYDWRTKKPVVIRASKQWFINITDIKTAAKELLKKVKFIPGSALNGMVEMMDRRPYWCISRQRVWGVPIPVFHHKTKDEYLINSQTTEHIVKLVEQHGSDIWWTLPPEQLLPKEVLSEVGGPDALEYVPGQDILDIWFDSGTSWSYVLPGPDQRADLYLEGKDQLGGWFQSSLLTSVAARKRAPYKTVIVHGFTLGEKGEKMSKSLGNVIHPDVVVNGGQDQSKEPPYGADVLRWWVADSNVFTEVAIGPSVLNAARDDISKLRNTLRFLLGNVADFNPETDSIPVNDMYVIDQYMLHLLQDLANKITELYKQYDFGKVVRLLRTFYTRELSNFYFSIIKDRLYCEKENDPKRRSCQTALVEILDVIVRSFAPILPHLAEEVFQHIPYIKEPKSVFRTGWISTSSIWKKPGLEEAVESACAMRDSFLGSIPGKNAAEYKVITVIEPGLLFEIIEMLQSEETSSTSQLNELMMASESTLLAQEPREMTADVIELKGKFLINLEGGDIREESSYKVIVMPTTKEKCPRCWKYTAESSDTLCPRCAEVVSGK
B4: HNRPM_HUMAN (protein, UniProt P52272 2-730, looked up)
Heterogeneous nuclear …: AAGVEAAAEVAATEIKMEEESGAPGVPSGNGAPGPKGEGERPAQNEKRKEKNIKRGGNRFEPYANPTKRYRAFITNIPFDVKWQSLKDLVKEKVGEVTYVELLMDAEGKSRGCAVVEFKMEESMKKAAEVLNKHSLSGRPLKVKEDPDGEHARRAMQKVMATTGGMGMGPGGPGMITIPPSILNNPNIPNEIIHALQAGRLGSTVFVANLDYKVGWKKLKEVFSMAGVVVRADILEDKDGKSRGIGTVTFEQSIEAVQAISMFNGQLLFDRPMHVKMDERALPKGDFFPPERPQQLPHGLGGIGMGLGPGGQPIDANHLNKGIGMGNIGPAGMGMEGIGFGINKMGGMEGPFGGGMENMGRFGSGMNMGRINEILSNALKRGEIIAKQGGGGGGGSVPGIERMGPGIDRLGGAGMERMGAGLGHGMDRVGSEIERMGLVMDRMGSVERMGSGIERMGPLGLDHMASSIERMGQTMERIGSGVERMGAGMGFGLERMAAPIDRVGQTIERMGSGVERMGPAIERMGLSMERMVPAGMGAGLERMGPVMDRMATGLERMGANNLERMGLERMGANSLERMGLERMGANSLERMGPAMGPALGAGIERMGLAMGGGGGASFDRAIEMERGNFGGSFAGSFGGAGGHAPGVARKACQIFVRNLPFDFTWKMLKDKFNECGHVLYADIKMENGKSKGCGVVKFESPEVAERACRMMNGMKLSGREIDVRIDRNA
B5: C1TC_HUMAN (protein, UniProt P11586 1-935, looked up)
C-1-tetrahydrofolate …: MAPAEILNGKEISAQIRARLKNQVTQLKEQVPGFTPRLAILQVGNRDDSNLYINVKLKAAEEIGIKATHIKLPRTTTESEVMKYITSLNEDSTVHGFLVQLPLDSENSINTEEVINAIAPEKDVDGLTSINAGKLARGDLNDCFIPCTPKGCLELIKETGVPIAGRHAVVVGRSKIVGAPMHDLLLWNNATVTTCHSKTAHLDEEVNKGDILVVATGQPEMVKGEWIKPGAIVIDCGINYVPDDKKPNGRKVVGDVAYDEAKERASFITPVPGGVGPMTVAMLMQSTVESAKRFLEKFKPGKWMIQYNNLNLKTPVPSDIDISRSCKPKPIGKLAREIGLLSEEVELYGETKAKVLLSALERLKHRPDGKYVVVTGITPTPLGEGKSTTTIGLVQALGAHLYQNVFACVRQPSQGPTFGIKGGAAGGGYSQVIPMEEFNLHLTGDIHAITAANNLVAAAIDARIFHELTQTDKALFNRLVPSVNGVRRFSDIQIRRLKRLGIEKTDPTTLTDEEINRFARLDIDPETITWQRVLDTNDRFLRKITIGQAPTEKGHTRTAQFDISVASEIMAVLALTTSLEDMRERLGKMVVASSKKGEPVSAEDLGVSGALTVLMKDAIKPNLMQTLEGTPVFVHAGPFANIAHGNSSIIADRIALKLVGPEGFVVTEAGFGADIGMEKFFNIKCRYSGLCPHVVVLVATVRALKMHGGGPTVTAGLPLPKAYIQENLELVEKGFSNLKKQIENARMFGIPVVVAVNAFKTDTESELDLISRLSREHGAFDAVKCTHWAEGGKGALALAQAVQRAAQAPSSFQLLYDLKLPVEDKIRIIAQKIYGADDIELLPEAQHKAEVYTKQGFGNLPICMAKTHLSLSHNPEQKGVPTGFILPIRDIRASVGAGFLYPLVGTMSTMPGLPTRPCFYDIDLDPETEQVNGLF

system: KDM4A-I71AzF; experiment: CASI: photo-crosslinking with HEK293T cell extracts, StrepTactin enrichment and LC-MS/MS proteomics; assay type: binding, human; conditions: sheet "Final results but with 0.01";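 also: lysates from HEK293T cells pretreated with a KDM4 inhibitor to raise proteome methylation, affinity-purified after ±UV, gel-resolved, trypsin-digested, with exclusive unique peptides per protein averaged per condition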

Row | Molecule | Fold change (+UV/-UV)
1 | B1 | 0.4286
2 | B2 | 0.25
3 | B3 | 4
4 | B4 | 1
5 | B5 | 0.9444
